Laboratory results as given in patent US7439329B2, “GEF-H1b: biomarkers, complexes assays and therapeutic uses thereof” (Sugen, Inc., priority 2002, dated 2008).

Experiments:
Type in all cases: cell-based, mouse
NIH-3T3 cells [1] = experiment: Morphology and localization in transfected NIH-3T3 cells (EGFP fluorescence, F-actin and microtubule staining)
Method: To analyse the effect of GEF-H1 on cell morphology in fibroblasts, EGFP (enhanced green fluorescent protein) fusion constructs of GEF-H1S and a series of mutant alleles of the PAK4 phosphorylation sites in GEF-H1S were introduced into NIH-3T3 cells. Also constructed, was a dominant negative allele by mutating the DH domain of GEF-H1 resulting in GEF-H-QR312,313MG. In a p21-binding domain (PBD) assay this dominant-negative allele inhibited accumulation of Rac-GTP but not Cdc42-GTP in NIH-3T3 cells. The actin cytoskeleton was stained with coumarin-phallicidin to contrast F-actin structures of EGFP fluorescing cells by microscopy.
Induction of F-actin structures in fibroblasts, namely the formation of filopodia, lamellipodia, and stress fibres is due to signalling by the active forms of Cdc42, Rac, and Rho, respectively. Because PAK proteins and specifically PAK4 play a role in regulating F-actin based morphological structures, experiments were devised to determine whether PAK4-induced changes in cell morphology were mediated by regulation of GEF-H1S. Also co-expressed were EGFP-GEF-H1 constructs with various HA epitope-tagged PAK4 alleles in NIH-3T3 cells. Exogenous PAK4 was detected with an anti-HA antibody (red) and the actin cytoskeleton was stained with coumarin-phallicidin (blue). Although NIH-3T3 cells have low but detectable levels of endogenous PAK4 and GEF-H1 these were not activated under the conditions of the experiment.
Residues phosphorylated by PAK4 in GEF-H1S are conserved in the MT (“microtubule”) bound form of GEF-H1, “GEF-H1M.” GEF-H1M contains a zinc finger domain in its amino terminus that allows it to bind to microtubules. The role microtubule binding in determining the ability of PAK4 to control GEF-H1M activity was investigated. Studies were performed with GEF-H1M that allowed simultaneous examination of both MT (through EGFP-GEF-H1M labelling of MTs in vivo) and actin cytoskeleton (through F-actin staining with coumarin-phallicidin). Also studied, were changes in the MT cytoskeleton by co-staining with β-tubulin antibodies.
GEF-H1S alleles were transiently expressed in NIH-3T3 cells or simultaneously expressed with PAK4 alleles. The GEF-H1S alleles were retrieved from the pcDNA vector by restriction with EcoR1 and Xho1 and inserted into pEGFP-C1 (Clontech,USA Cat#6082-1) restricted with EcoR1 and Sal1. The resulting protein was a hybrid of the brightly fluorescent protein, green fluorescent protein (GFP). The effects on cell morphology were traced by staining of F-actin with coumarin phallacidin (Molecular Probes, USA, Cat. # C-606). […] See, Callow et al., 2002. This finding was consistent with GEF-H1S being a substrate for PAK4, because activated PAK4 is also localized to the Golgi apparatus.
NIH-3T3, 293T, A549, HCT116 and H1299 cells were maintained in Dulbecco's modified Eagles medium (DMEM) 10% Fetal Bovine serum (FBS), penicillin and streptomycin from Invitrogen (Carlsbad, Calif.). For transfection, cells were seeded at 10^5 cells ml-1 for NIH-3T3 and […] for both 293T and H1299 unless otherwise stated. Transfection reagents Lipofectamine 2000 (Invitrogen) or Fugene (Roche Molecular) were used at […] of plasmid DNA. Cellular extracts for immunoblotting were prepared in lysis buffer. For immunoprecipitation experiments lysates were incubated with Protein G beads (Pharmacia) linked with appropriate antibody, glutathione sepharose beads (Pharmacia) with appropriate GST fusion protein and streptavidin beads (Pierce) linked to appropriate biotinylated peptides. For immunofluorescence, coverslips were placed in 24 well cell culture vessels and seeded at the densities above. Transfections took place after 16 h and unless otherwise stated were maintained in Optimem or DMEM with 0.2% FBS for 24 h until fixation. Microscopy was performed on a Nikon E800 microscope with 60× objective (1.5NA). […]

NIH-3T3 cells [2] = experiment: Anchorage independent survival and proliferation (XTT assay); conditions: over-expression in NIH-3T3; vessels which prevent adherence
Method: A stably expressing clone designated 192.58 containing GEF-H1S was established in the mouse fibroblast cell line, NIH-3T3. The pRSV/Rc subcloned vector expresses the GEF-H1S protein in tissue culture cells.
The GEF-H1S clones were plated in tissue culture vessels which prevent adherence. […] The ability for cells to proliferate was measured using the tetrazolium salt XTT based assay (Roche Molecular Biochemicals Cat# 1465015) which measured only metabolically active cells in culture. Measurements were made over a time course.

NIH-3T3 cells [3] = experiment: In vitro transformation (foci) assay
[4] = GEF-H1 allele alone, majority of transfected cells
[5] = co-expressed with PAK4 allele PAK4
[6] = co-expressed with PAK4 allele PAK4K350,351A
[7] = co-expressed with PAK4 allele PAK4S474E

B1: GEF-H1S: novel GEF-H1 splice isoform, residues 1-921, lacking N-terminal zinc finger domain (SEQ ID NO. 2) (protein)
chain: MPVTRASQPRKPSSAQQQKAALLKNNTALQSVSLRSKTTIRERPSSAIYPSDSFRQSLLGSRRGRSSLSLAKSVSTTNIAGHFNDESPLGLRRILSQSTDSLNMRNRTLSVESLIDEAEVIYSELMSDFEMDEKDFAADSWSLAVDSSFLQQHKKEVMKQQDVIYELIQTELHHVRTLKIMTRLFRTGMLEELHLEPGVVQGLFPCVDELSDIHTRFLSQLLERRRQALCPGSTRNFVIHRLGDLLISQFSGPSAEQMCKTYSEFCSRHSKALKLYKELYARDKRFQQFIRKVTRPAVLKRHGVQECILLVTQRITKYPLLISRILQHSHGIEEERQDLTTALGLVKELLSNVDEGIYQLEKGARLQEIYNRMDPRAQTPVPGKGPFGREELLRRKLIHDGCLLWKTATGRFKDVLVLLMTDVLVFLQEKDQKYIFPTLDKPSVVSLQNLIVRDIANQEKGMFLISAAPPEMYEVHTASRDDRSTWIRVIQQSVRTCPSREDFPLIETEDEAYLRRIKMELQQKDRALVELLREKVGLFAEMTHFQAEEDGGSGMALPTLPRGLFRSESLESPRGERLLQDAIREVEGLKDLLVGPGVELLLTPREPALPLEPDSGGNTSPGVTANGEARTFNGSIELCRADSDSSQRDRNGNQLRSPQEEALQRLVNLYGLLHGLQAAVAQQDTLMEARFPEGPERREKLCRANSRDGEAGRAGAAPVAPEKQATELALLQRQHALLQEELRRCRRLGEERATEAGSLEARLRESEQARALLEREAEEARRQLAALGQTEPLPAEAPWARRPVDPRRRSLPAGDALYLSFNPPQPSRGTDRLDLPVTTRSVHRNFEDRERQELGSPEERLQDSSDPDTGSEEEGSSRLSPPHSPRGETLAETWTRDFTRMQDIPEETESRDGEAVASES
F-actin (NIH-3T3 cells [1]; [4]): occassional stress fibers
Microtubule (NIH-3T3 cells [1]; [4]): radial array
cell morphology (NIH-3T3 cells [1]; [4]): polarized
subcellular localization (NIH-3T3 cells [1]; GFP fusion transiently expressed in NIH-3T3 cells): localized at the perinuclear region of the Golgi apparatus
F-actin (NIH-3T3 cells [1]; [5]): extreme filopodia
Microtubule (NIH-3T3 cells [1]; [5]): radial array
cell morphology (NIH-3T3 cells [1]; [5]): contracted
F-actin (NIH-3T3 cells [1]; [6]): stress fibers
Microtubule (NIH-3T3 cells [1]; [6]): radial array
cell morphology (NIH-3T3 cells [1]; [6]): elongated
F-actin (NIH-3T3 cells [1]; [7]): peripheral lammellipodia
Microtubule (NIH-3T3 cells [1]; [7]): disorganized
cell morphology (NIH-3T3 cells [1]; [7]): polarized
anchorage independent survival and proliferation (NIH-3T3 cells [2]): anchorage independent
foci induction (NIH-3T3 cells [3]; NIH-3T3 cells): able to induce foci
effect on foci in co-transformation with activated Ras (NIH-3T3 cells [3]; co-transformation with activated Ras, titrations): synergizes with activated Ras
